Laboratory results reported in patent US20260234220A1 (OSPEDALE SAN RAFFAELE S R L, published 2026).

Key:
Experiment in all cases: immunofluorescence on infected Vero E6 cells
[1] = molecular target: T1, spike protein of SARS-CoV-2 Delta clinical isolate (hCoV-19/Italy/LOM-UniSR12/2021; GISAID EPI_ISL_4198505) (SARS-CoV-2, UniProt P0DTC2 14-1273)
T1 construct: whole, on cells

[2] = molecular target: T2, spike protein of SARS-CoV-2 P.1 (Gamma) clinical isolate (hCoV-19/Italy/LOM-UniSR8/2021); GISAID … (SARS-CoV-2, UniProt P0DTC2 14-1273)
T2 construct: whole, on cells

[3] = molecular target: T3, spike protein of SARS-CoV-2 B.1.1.7 (Alpha) clinical isolate (19/Italy/LOM-UniSR7/2021); GISAID … (SARS-CoV-2, UniProt P0DTC2 14-1273)
T3 construct: whole, on cells

Measured: binding result

B1: Fab BS.70 (Fab, V domains shown)
VH: LESGGGVVQPGTSLRLSCAASGFTFNNFGMHWVRQAPGKGLEWVAMISYEGSKDFYADSVKGRFTISKDHARNTVYLQMNSLRAEDTAEYYCAKDKAIFMISAGRTLDFWGQGTLVTVSS
VL: ELVMTQSPSSLSASVGDRVTITCRASQNIGIYLNWYQQKPGKAPKLLIYAASSLQNGVPSRFSGSGSGTDFTLTISTLQPEDFATYWCQQGYSTPLTFGGGTKVEIR
binds: [1] | [2] | [3]
